According to US7144731B2, “SCF antibody compositions and methods of using the same” (Amgen Inc., priority 1989, dated 2006):
Entries after “also recorded” stand apart in the source; their conditions may differ.

B1: SCF^1-130: E. coli human SCF analog, amino acids 1 to 130 (protein)
chain: EGICRNRVTNNVKDVTKLVANLPKDYMITLKYVPGMDVLPSHCWISEMVVQLSDSLTDLLDKFSNISEGLSNYSIIDKLVNIVDDLVECVKENSSKDLKKSFKSPEPRLFTPEEFFRIFNRSIDAFKDFV

Experiments:
Balb/c mice = experiment: 5-FU experimental thrombocytopenia; type: in vivo, mouse
Procedure: Balb/c mice were either untreated or treated intravenously with 5-fluorouracil (150 mg/kg) on Day 0 (n=5). Blood analyses were performed on the indicated days as in legend to FIG. 53. Error bars are present, but not discernable, in some of the control points. […] After Day 12, platelet counts appeared to cycle from normal to high levels throughout the 40 day testing period. […] Two Balb/c mice per group were sacrificed at the indicated days. Cells from bone marrow (Panel A) or spleen (Panel B) were aliquoted at 100,000/well of a microtiter plate and stained for acetylcholinesterase according to published procedures, Long et al., Immature megakaryocytes in the mouse: Morphology and quantitation by acetlycholinesterase staining. Blood 58: 1032, 1981. Data points are the percentage of ACH+ cells per well for individual animals.
Platelet volumes also increase after 5-FU (FIG. 57). The data in this figure were generated from the same blood samples collected in FIG. 55. Mean Platelet Volume (MPV) is one of the parameters analyzed by the Sysmex Cell Analyzer.
The possibility of a relationship between SCF and the physiological regulator of platelet production induced in the 5-FU thrombocytopenic model was explored. 5-FU was given to normal mice and SCF mRNA expression levels quantitated in bone marrow cells collected on the days indicated in FIG. 58. In FIG. 58, one million cells were lysed in SDS buffer and the lysate was analyzed for the presence of mRNA specific for murine SCF. […] RNA sense strand standards for quantitation of the hybridization assays were produced by runoff transcription of the same region in the direction opposite to the direction of probe synthesis using tracer quantities of ^35S-UTP and 0.2 mM unlabeled UTP.
SCF or actin mRNA levels were quantitated as follows. […] After addition of 5 mls Liquiscint (New England Nuclear; Boston, Mass.) samples were counted 20 minutes or to 3% error. […]

UT-7 cells = experiment: UT-7 ^3H-thymidine uptake assay; type: cell-based, human
Procedure: UT-7 cells are a human megakaryocyte, huGM-CSF responsive cell line obtained from John Adamson, New York Blood Center, New York, N.Y. UT-7 cells were cultured in Iscove's Modified Dulbecco's Medium, 10% FBS, 1× glutamine, 5 \g/ml huGM-CSF. Cells are passaged twice a week at 1×10^5 cells/ml.
Cells were washed twice in phosphate buffered saline (PBS) and resuspended in RPMI medium with 4% FBS and glutamine penicillin streptomycin (GPS) (Irvine Scientific Cat No. 9316 used at 1% volume per volume) at 4×10^4 cells/ml before use. Human SCF along with specific samples were added to 4000 cells/well in 96 well plates and were cultured for 72 hrs. 0.5 uCi/well of ^3H-Thymidine was then added to each plate, plates were harvested and counted 4 hours later.

[1] = biological target: T1, SCF receptor (OCIM1 plasma membrane) (Homo sapiens, UniProt P10721); experiment: SCF radioreceptor assay; type: binding
T1 construct: endogenous in cells; host or cells: OCIM1 human erythroleukemic cells, plasma membrane preparation
Procedure: OCIM1 cells, [Papayannopoulou et al., Blood 72:1029–1038 (1988)] are a human erythroleukemic cell line expressing many human SCF receptors per cell. These cells are grown in Iscove's Modified Dulbecco's Medium, 10% FBS, and 1× glutamine and passaged 3 times a week to 1×10^5 cells/ml.
Preparation of the OCIM1 plasma membrane is as follows with all steps performed on ice.
First, 40 T175 flasks of cells were grown-up in OCIM1 culture medium, for a total of 1.9×10^9 […]. The conditioned medium and 1 mM Phenyl Methyl Sulfonyl Fluoride (PMSF) protease inhibitor, was spun down in 8×250 ml tubes at 1000 rpm for 10 minutes at 4° C. Cells were washed with PBS and repelleted in 4×50 ml centrifuge tubes at 1000 rpm for 10 minutes at 4° C. Cells were resuspended in 20 ml ice cold PBS with glucose sodium pyruvate (Gibco Cat #310-4287). The 20 ml cell solution was put into a pre-pressurized, pre-chilled (4° C.) “cell bomb” designed to lyse the cells. Cells were pressurized at 400–650 PSI for 10 minutes to establish equilibrium. When the pressure is released cell lysis occurs.
At this point the cells were checked for the percentage of cell lysis. 90% lysis was common. The cell suspension was resuspended in 80 mls sucrose buffer (0.25M sucrose, 10 mM Tris, 1 mM EDTA in double distilled (dd) H2O, filtered through a 0.45 u filter, pH 7.0) and divided between two 40 ml screwcap tubes. Tubes were spun at 5900 RPM for 10 minutes in a Beckman J2-21 centrifuge, JA-20 rotor at 4° C. The supernatants were saved and spun one more time as above to further remove any unwanted material. Supernatants were saved and distributed equally into 2 nalgene 40 ml centrifuge tubes. These supernatants were centrifuged at 16,000 RPM 4° C. for 30 min. in J2-21 centrifuge, JA-20 rotor. These supernatants were discarded being careful to save pellets. Each pellet was resuspended in sucrose buffer so there were 20 mls per tube in 4×36 ml plastic ultracentrifuge tubes. Using a 20 ml syringe and a large trochar, the solution was carefully underlayered in each tube with ice cold 36% sucrose solution (36.1 g sucrose/100 mls ddH2O), bringing the level of the liquid to within 2 mm of the top of the tube. Without disturbing the interface, each tube was carefully placed into each of […] titanium ultracentrifuge tubes. Tubes were centrifuged at 27,000 RPM, 4° C. for 75 minutes in an ultracentrifuge. These tubes were carefully removed from the rotor and from titanium buckets, placed in a rack with the 36% sucrose interface visible. The membraneous material at the interface was collected with a pasteur pipet and transfered into 2 clean nalgene 40 ml centrifuge tubes. Volume was brought up to 40 mls with ice cold sucrose buffer. Tubes were balanced and centrifuged as before at 5900 RPM in J2-21 centrifuge. […]

Molecule	megakaryocyte numbers (ACH+ cells) in bone marrow and spleen (Balb/c mice; 150 mg/kg i.v.)	platelet volumes (Balb/c mice; 150 mg/kg i.v.)	platelet counts, time course (Balb/c mice; 150 mg/kg i.v. on Day 0)	specific activity in the UT-7 assay (UT-7 cells)	specific activity in the radioreceptor assay [1]
O=c1[nH]cc(F)c(=O)[nH]1 [5-FU, 5-fluorouracil]	rise dramatically	increase	thrombocytopenic by Day 5; also recorded: rebound thrombocytosis		
SCF^1-137: E. coli human SCF analog, amino acids 1 to 137				about 25 % of the value for SCF^1-164	full specific activity
B1				about 15 % of the value for SCF^1-164	about 50 % of the value for SCF^1-164
